This note sets out measurements from article PMC9175631 (Journal of Virology, 2022).

Numbering of substitutions follows the chain as printed.

B1: anti-ZIKV MAb 270-12 (antibody, V domains shown)
VH: QAQLEESGGDLVKPEGSLTLTCTASGFSFTDRHYMCWVRQAPGKGLEWIACVYPGSSGSTYYASWARGRFTISKTSSTTVTLRMTSLTAADTATYFCARSSYPDSSGYSYGMDLWGPGTLVTVSS
VL: DIVMTQTPASVEAAVGGTVTIKCQASQDINSNLAWYQQKPGQRPKFLMYLTSKLASGVPSRFRGSGSGTQFTLTISDLECADAATYYCQTYYDISNYGYAFGGGTEVVVK
notes: source: 293-6E cells, cotransfected, purified (MabSelect SuRe protein A)
B2: anti-ZIKV MAb 289-3 (antibody, V domains shown)
VH: QEELEESGGDLVKPGASLTLTCKASGFSFSSGAYICWVRQAPGKGPEWIACIYTGDGRTYYANWAKRRFTISSSSSTTVALEMPSLTDADTATYFCARAIAVGAGYGVGNYFTLWGPGTLVTVSS
VL: DIVMTQTPSSVSAAVGGTVTINCHASENIYGYLSWYQQKPGQPPKLLIYKASTLASGVPSRFKGSGAGTQFTLTITALECADAATYYCQSYYTSSSNADGSENAFGGGTEVVVE
B3: anti-ZIKV MAb 11-3 (antibody, V domains shown)
VH: QEQLVESGGGLVQPEGSLTITCTGSGFSFSSRFYMCWVRQAPGKGLEWIACIYGGSSGSTYYASWAKGRFTISKTSSTTVTLQISSLTAADTATYFCARGGSTAAAGFNLWGPGTLLTVSS
VL: DVVMTQTPASVSATVGGTVTIKCQASEDIYNLLAWYQQKPGQPPKLLIYYASTLASGVPSRFKGSGSGTEFTLTISDLECADAATYYCQCNDYGGTYVPNAFGGGTEVVVK
notes: recombinant rabbit IgG
B4: anti-ZIKV MAb 306-2 (antibody, V domains shown)
VH: QSLEESGGDLVKPGASLTLTCTASGFDFSDRYYMCWVRQAPGKGLEWIGCIYVGSGDTYYASWAKGRFTISRTSSTTVTLQMTRLTAADTATYFCARHPGTYFTLWGPGTLVTVSS
VL: DVVMTQTPSSVSAAVGGTVTINCQASQNIVNNLAWYQQRPGQPPKLLIYDTSTLASGVPSRFKGSGSGTEFTLTISDLECADAATYYCQTYYYYNKIINGFGGGTEVVVK
B5: framework region (FWR) amino acid reverted anti-ZIKV MAb 102-1 (antibody, V domains shown)
VH: QSLEESGGDLVKPGASLTLTCTASGFSFNSNYWMCWVRQAPGKGLEWIACVFGGIHVTYYASWAKGRFTISKTSSTTVTLQMTSLTAADTATYFCIISTGGSHRFNLWGPGTLVTVSS
VL: DVVMTQTPSPVSAAVGGTVTINCQASESIYTYLSWYQQKPGQPPKLLIYRASTLESGVPSRFKGSGSGTQFTLTISDLECADAATYYCQATDVGGSGRGAFGGGTEVVVE
notes: rabbit IgG; 9 FWRH and 9 FWRL residues reverted to the germ line
B6: framework region (FWR) amino acid reverted anti-ZIKV MAb 306-2 (antibody, V domains shown)
VH: B4 VH with G49A, R72K, R84S
VL: B4 VL with S10P, A34S, R39K, T53N, G66R
notes: rabbit IgG; 3 FWRH and 5 FWRL residues reverted to the germ line; also called allele reverted MAb 306-2; MAb 306-2 with amino acid reverted to allele

Usually Kd stands for the constant that tells how readily two partners part at equilibrium. High values mean weaker binding, low ones tighter binding. Usually koff stands for a measure of how fast the partners let go of each other. Read a high koff as a short-lived complex. As usually defined, the kon is the rate constant with which the complex forms. A higher kon goes with fast association.

For one assay, the target named is T1, ZIKV virus-like particles (Suriname Z1106033) (Zika virus, Suriname Z1106033, UniProt A0A0U4DG08, strain).
T1 construct: also called ZIKV-VLP; VLP; source: bought: The Native Antigen Company
The assay is described as follows: BLI; Octet HTX; MAb 0.1 to 0.3 μg/mL amine-coupled to AR2G biosensor; ZIKV-VLP 0.1 to 1.0 μg/mL or ZIKV E protein 0.2 to 2 μg/mL in 1x kinetic buffer; association 900 s, dissociation 1,200 s; Langmuir 1:1 model; average of two runs. As to conditions: both partners purified.
Regarding B1, the equilibrium dissociation constant (Kd) came out at 0.31 nM, the koff stood at 4.27e-05 s⁻¹ and the kon was found to be 140000 M⁻¹ s⁻¹.

In turn, B2 displayed a Kd of 0.3 nM, a koff of 4.58e-05 s⁻¹ and an association rate constant (kon) of 155000 M⁻¹ s⁻¹.

B3: the affinity, expressed as Kd, was 0.57 nM; the koff was determined as 7.13e-05 s⁻¹; the kon is 125000 M⁻¹ s⁻¹.

As to B4, binding was characterised by a dissociation constant (Kd) of 0.4 nM, the koff was found to be 6.34e-05 s⁻¹ and the kon came to 160000 M⁻¹ s⁻¹.

In the next assay the target is T2, ZIKV E protein (Suriname Z1106033) (Zika virus, Suriname Z1106033, UniProt A0A0U4DG08, strain).
T2 construct: also called soluble ZIKV E protein
The description is as above. As to conditions: both partners purified.
B1 showed a Kd of 1.04 nM, a koff of 9.8e-05 s⁻¹ and an association rate constant (kon) of 94500 M⁻¹ s⁻¹.

Consider B2, for which the dissociation constant Kd is 0.29 nM, the koff worked out at 3.68e-05 s⁻¹ and the on-rate (kon) worked out at 129000 M⁻¹ s⁻¹.

For B3, the Kd turned out to be 1.53 nM, the dissociation rate constant (koff) was found to be 0.000137 s⁻¹ and the on-rate constant (kon) worked out at 89800 M⁻¹ s⁻¹.

With B4, the dissociation constant Kd came to 0.17 nM, the off-rate constant (koff) turned out to be 2.04e-05 s⁻¹ and the kon is 117000 M⁻¹ s⁻¹.

Another assay has as its target T3, wild-type ZIKV prM/E (ZIKV SPH2015) (Zika virus, SPH2015, UniProt A0A0U3FSM8, strain).
T3 construct: also called WT prM/E; wild-type prM/E; source: HEK-293T, transfected, cells fixed and permeabilised
The assay is described as follows: flow cytometry on cells. As to conditions: one partner purified.
As for B1, the binding result is “binds”.

For the molecule B2, the binding result is listed as “binds”.

B4: the binding result is reported as “binds”.

Another assay deals with T2, ZIKV E protein (Suriname Z1106033). The assay is described as follows: BLI; Octet HTX; 2 μg/mL MAb captured on protein G biosensor in 0.1% BSA-PBST; 3 μg/mL ZIKV E protein associated 600 s, dissociated 900 s. As to conditions: both partners purified. Background: Biolayer interferometry detects binding as a change in optical thickness at a sensor tip.
As to B5, the binding result is “binds”.

On to B6, for which the binding result was “binds”.

The target is the same in another assay. The assay is described as follows: cell-based or functional assay.
Settings: not given
Take B1: the “MNT titer, IC50 (microneutralization of ZIKV PRVABC59 on Vero cells)” value came out at 0.0372 µg/mL.

Molecule B2 returned an other of 7.8 ng/mL.

Take B4: the other was 10500 ng/mL.

The next assay has as its target T1, ZIKV virus-like particles (Suriname …). The assay is described as follows: Luminex bead assay; VLP conjugated to MagPlex beads (EDC/NHS); 10,000 beads/mL with 10 μg/mL to 0.0002 ng/mL MAb, 90 min, room temperature, 1% BSA in D-PBS; detected with phycoerythrin-labeled anti-rabbit IgG. Particulars: both partners purified.
As to B5, the binding result is “binds”.

On to B6, for which the binding result is on record as “binds”.
